Legend:
[1] = molecular target: PcVps75ΔCM-SeMet (residues 1-223, E56 and N127 mutated to methionine, selenomethionine-labeled), cry (Pneumocystis carinii); assay: crystal structure
[2] = molecular target: PcVps75ΔC (residues 1-223), crystallised as a dimer (Pneumocystis carinii); assay: crystal structure

Substance | stoichiometry N [1] | stoichiometry N [2]
PcVps75ΔCM-SeMet (residues 1-223, E56 and N127 mutated to methionine, selenomethionine-labeled), cry (domain or fragment) | 4 | 
PcVps75ΔC (residues 1-223), crystallised as a dimer (domain or fragment) |  | 2
